Measured values reported in patent publication US20130071921A1 (Pfizer, published 2013).

T1: Recombinant human Dkk-1 (R&D Systems cat no. 1096-DK/CF), 10xHis tag at the C terminal (human, UniProt O94907 32-266)
T1 construct: the actual N-terminus of the purified protein is marked in bold italic after residue 30, but the mark is an image lost in the text; also called rhuDkk-1; hDkk-1
T1 sequence: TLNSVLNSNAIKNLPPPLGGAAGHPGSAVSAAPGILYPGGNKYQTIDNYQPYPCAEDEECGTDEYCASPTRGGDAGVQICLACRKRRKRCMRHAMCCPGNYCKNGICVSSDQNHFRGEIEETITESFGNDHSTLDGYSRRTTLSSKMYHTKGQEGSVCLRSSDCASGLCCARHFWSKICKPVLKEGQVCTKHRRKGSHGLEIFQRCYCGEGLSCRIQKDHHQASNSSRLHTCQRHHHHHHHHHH


How the values were obtained:
[1] = target: T1, Recombinant human Dkk-1 (R&D Systems …); assay: theoretical: koff / estimated kon 1e6 1/Ms (SPR screening 37C)
Method: (§1) For screening assays to determine binding and dissociation rates of huMabJC18 variants to human Dkk1, either BIAcore or ProteOn XPR36 (BioRad, Inc.) systems were used. For the BIAcore assay, biotinylated-human Dkk1 was captured on SA (streptavidin) BIAcore chips according to the supplier's instructions. Biotinylated-human Dkk-1 protein was diluted into HBS-EP, and injected over the chip at a concentration of 5 μg/mL. Flow times across the individual chip channels were selected to achieve an antigen density of approximately 500-600 response units (RU). HBS-EP buffer was used as running buffer. Filtered recombinant E.coli cell lysates were injected at high temperature (37° C.) for 1 min at 30 ul/min, allowing a 1-5 min dissociation phase. Surfaces were regenerated with 8 mM NaOH+8% ethanol. A positive control Fab (clone 24) was injected twice at the start of the experiment, and again at the end of the assay to assess reproducibility.
For the ProteOn assay, biotinylated human Dkk-1 was injected for 1 min at serial fold dilutions empirically determined to yield different levels of immobilization (150-3000 RU) on five channels of a ProteOn NLC Neutravidin sensor chip. The sixth channel was left unmodified to serve as a reference surface. Recombinant Fabs in filtered E. coli lysates were injected at high temperature (37° C.) for 50 sec at 20 μl/min. Running buffer consisted of PBS+1 mg/ml BSA+0.005% Tween-20. The ProteOn is configured such that each injection flows over each of the five Dkk-1 channels as well as the reference channel, and six Fab samples can be injected simultaneously. Fab dissociation from the Dkk-1 surface was monitored for 20 min. The chip surface was regenerated with a 30-sec injection of 8% EtOH, 8 mM NaOH. Clone 24 Fab was used as control. Level of binding during association, and rate of dissociation for each clone was very consistent between different ligand channels. […]

[2] = target: T1, Recombinant human Dkk-1 (R&D Systems …); assay: SPR screening 37C (BIAcore/ProteOn), Fab lysate over biotinylated human Dkk-1
Method: as §1
For the ProteOn assay, biotinylated human Dkk-1 was injected for 1 min at serial fold dilutions empirically determined to yield different levels of immobilization (150-3000 RU) on five channels of a ProteOn NLC Neutravidin sensor chip. The sixth channel was left unmodified to serve as a reference surface. Recombinant Fabs in filtered E. coli lysates were injected at high temperature (37° C.) for 50 sec at 20 μl/min. Running buffer consisted of PBS+1 mg/ml BSA+0.005% Tween-20. The ProteOn is configured such that each injection flows over each of the five Dkk-1 channels as well as the reference channel, and six Fab samples can be injected simultaneously. Fab dissociation from the Dkk-1 surface was monitored for 20 min. The chip surface was regenerated with a 30-sec injection of 8% EtOH, 8 mM NaOH. Clone 24 Fab was used as control. Level of binding during association, and rate of dissociation for each clone was very consistent between different ligand channels.

Row | Binder | Kd [1] [nM] | koff [2] [s⁻¹]
1 | L2.1B5 (Fab, V domains shown, tested as Fab (E. coli lysate, screening mode); human kappa CL and IgG2 CH1 not included here) VH: EVQLVESGGGLVQPGGSLRLSCAASGFTFSSYAISWVRQAPGKGLEWVASVSGWGDTYYPDSVKGRFTISRDNAKNSLYLQMNSLRAEDTAVYYCATSLENYAFDYWGQGTTVTVSS VL: EIVLTQSPATLSLSPGERATLSCRASESVDDFGISFMNWYQQKPGQAPRLLIYAASKQGSGIPARFSGSGSGTDFTLTISSLEPEDFAVYYCQQSKEVPPTFGGGTKVEIK | 4.42 | 0.00442
2 | 1F10.33L (Fab, V domains shown, human kappa CL and IgG2 CH1 not included here) VH: EVQLVESGGGLVQPGGSLRLSCAASGFTFSSYAISWVRQAPGKGLEWVASVSGGFQTYYPDSVKGRFTISRDNAKNSLYLQMNSLRAEDTAVYYCATSLDNYAFDYWGQGTTVTVSS VL: EIVLTQSPATLSLSPGERATLSCRASESVDDFGISFINWYQQKPGQAPRLLIYAGSKQGSGIPARFSGSGSGTDFTLTISSLEPEDFAVYYCQQLKEVPPTFGGGTKVEIK | 0.09 | 8.99e-05
3 | 2G9.33L (Fab, V domains shown, tested as Fab (E. coli lysate, screening mode); human kappa CL and IgG2 CH1 not included here) VH: EVQLVESGGGLVQPGGSLRLSCAASGFTFSSYAISWVRQAPGKGLEWVASVSGWGDTYYPDSVKGRFTISRDNAKNSLYLQMNSLRAEDTAVYYCATSLRNYAFDYWGQGTTVTVSS VL: EIVLTQSPATLSLSPGERATLSCRASESVDDFGISFINWYQQKPGQAPRLLIYAGSKQGSGIPARFSGSGSGTDFTLTISSLEPEDFAVYYCQQLKEVPPTFGGGTKVEIK | 0.283 | 0.000283
4 | 2H10.33L (Fab, V domains shown, tested as Fab (E. coli lysate, screening mode); human kappa CL and IgG2 CH1 not included here) VH: EVQLVESGGGLVQPGGSLRLSCAASGFTFSSYAISWVRQAPGKGLEWVASVSGWFDTYYPDSVKGRFTISRDNAKNSLYLQMNSLRAEDTAVYYCATSLQNYAFDYWGQGTTVTVSS VL: EIVLTQSPATLSLSPGERATLSCRASESVDDFGISFINWYQQKPGQAPRLLIYAGSKQGSGIPARFSGSGSGTDFTLTISSLEPEDFAVYYCQQLKEVPPTFGGGTKVEIK | 0.148 | 0.000148
5 | 24 (Fab, V domains shown, positive control Fab of the screening assays; human kappa CL and IgG2 CH1 not included here; printed changes identical to L2.1E5; also called clone 24; Clone 24 Fab) VH: EVQLVESGGGLVQPGGSLRLSCAASGFTFSSYAISWVRQAPGKGLEWVASVSGGGRTYYPDSVKGRFTISRDNAKNSLYLQMNSLRAEDTAVYYCATSLENYAFDYWGQGTTVTVSS VL: EIVLTQSPATLSLSPGERATLSCRASESVDDFGISFMNWYQQKPGQAPRLLIYAASKQGSGIPARFSGSGSGTDFTLTISSLEPEDFAVYYCQQSKEVPPTFGGGTKVEIK | 11.4 | 0.0114
6 | 24m4 (Fab, V domains shown, tested as Fab (E. coli lysate, screening mode); human kappa CL and IgG2 CH1 not included here) VH: EVQLVESGGGLVQPGGSLRLSCAASGFTFSSYAISWVRQAPGKGLEWVASVSGGGRTYYPDSVKGRFTISRDNAKNSLYLQMNSLRAEDTAVYYCATSLENYAFDYWGQGTTVTVSS VL: EIVLTQSPATLSLSPGERATLSCRASESVDDFGISFLNWYQQKPGQAPRLLIYAASKQGSGIPARFSGSGSGTDFTLTISSLEPEDFAVYYCQQSKEVPPTFGGGTKVEIK | 11.8 | 0.0118
7 | 24m5 (Fab, V domains shown, tested as Fab (E. coli lysate, screening mode); human kappa CL and IgG2 CH1 not included here) VH: EVQLVESGGGLVQPGGSLRLSCAASGFTFSSYAISWVRQAPGKGLEWVASVSGGGRTYYPDSVKGRFTISRDNAKNSLYLQMNSLRAEDTAVYYCATSLENYAFDYWGQGTTVTVSS VL: EIVLTQSPATLSLSPGERATLSCRASESVDDFGISFMNWYQQKPGQAPRLLIYAGTKQGSGIPARFSGSGSGTDFTLTISSLEPEDFAVYYCQQSKEVPPTFGGGTKVEIK | 8.74 | 0.00874
8 | 24m6 (Fab, V domains shown, tested as Fab (E. coli lysate, screening mode); human kappa CL and IgG2 CH1 not included here) VH: EVQLVESGGGLVQPGGSLRLSCAASGFTFSSYAISWVRQAPGKGLEWVASVSGGGRTYYPDSVKGRFTISRDNAKNSLYLQMNSLRAEDTAVYYCATSLENYAFDYWGQGTTVTVSS VL: EIVLTQSPATLSLSPGERATLSCRASESVDDFGISFMNWYQQKPGQAPRLLIYAGSKQGSGIPARFSGSGSGTDFTLTISSLEPEDFAVYYCQQSKEVPPTFGGGTKVEIK | 9.14 | 0.00914
9 | L2.1B11 (Fab, V domains shown, tested as Fab (E. coli lysate, screening mode); human kappa CL and IgG2 CH1 not included here) VH: EVQLVESGGGLVQPGGSLRLSCAASGFTFSSYAISWVRQAPGKGLEWVASVSGWFDTYYPDSVKGRFTISRDNAKNSLYLQMNSLRAEDTAVYYCATSLRNYAFDYWGQGTTVTVSS VL: EIVLTQSPATLSLSPGERATLSCRASESVDDFGISFMNWYQQKPGQAPRLLIYAASKQGSGIPARFSGSGSGTDFTLTISSLEPEDFAVYYCQQSKEVPPTFGGGTKVEIK | 2.07 | 0.00207
10 | L2.1D12 (Fab, V domains shown, tested as Fab (E. coli lysate, screening mode); human kappa CL and IgG2 CH1 not included here) VH: EVQLVESGGGLVQPGGSLRLSCAASGFTFSSYAISWVRQAPGKGLEWVASVSGWFDTYYPDSVKGRFTISRDNAKNSLYLQMNSLRAEDTAVYYCATSLQNYAFDYWGQGTTVTVSS VL: EIVLTQSPATLSLSPGERATLSCRASESVDDFGISFMNWYQQKPGQAPRLLIYAASKQGSGIPARFSGSGSGTDFTLTISSLEPEDFAVYYCQQSKEVPPTFGGGTKVEIK | 2.78 | 0.00278
11 | L2.1E5 (Fab, V domains shown, tested as Fab (E. coli lysate, screening mode); human kappa CL and IgG2 CH1 not included here; printed changes identical to clone 24) VH: EVQLVESGGGLVQPGGSLRLSCAASGFTFSSYAISWVRQAPGKGLEWVASVSGGGRTYYPDSVKGRFTISRDNAKNSLYLQMNSLRAEDTAVYYCATSLENYAFDYWGQGTTVTVSS VL: EIVLTQSPATLSLSPGERATLSCRASESVDDFGISFMNWYQQKPGQAPRLLIYAASKQGSGIPARFSGSGSGTDFTLTISSLEPEDFAVYYCQQSKEVPPTFGGGTKVEIK | 5.7 | 0.0057
12 | L2.1F11 (Fab, V domains shown, tested as Fab (E. coli lysate, screening mode); human kappa CL and IgG2 CH1 not included here) VH: EVQLVESGGGLVQPGGSLRLSCAASGFTFSSYAISWVRQAPGKGLEWVASVSGWLDTYYPDSVKGRFTISRDNAKNSLYLQMNSLRAEDTAVYYCATSLQNYAFDYWGQGTTVTVSS VL: EIVLTQSPATLSLSPGERATLSCRASESVDDFGISFMNWYQQKPGQAPRLLIYAASKQGSGIPARFSGSGSGTDFTLTISSLEPEDFAVYYCQQSKEVPPTFGGGTKVEIK | 2.12 | 0.00212
13 | L2.1G4 (Fab, V domains shown, tested as Fab (E. coli lysate, screening mode); human kappa CL and IgG2 CH1 not included here) VH: EVQLVESGGGLVQPGGSLRLSCAASGFTFSSYAISWVRQAPGKGLEWVASVSGWFDTYYPDSVKGRFTISRDNAKNSLYLQMNSLRAEDTAVYYCATSLENYAFDKWGQGTTVTVSS VL: EIVLTQSPATLSLSPGERATLSCRASESVDDFGISFMNWYQQKPGQAPRLLIYAASKQGSGIPARFSGSGSGTDFTLTISSLEPEDFAVYYCQQSKEVPPTFGGGTKVEIK | 3.12 | 0.00312
14 | L2.1G8 (Fab, V domains shown, tested as Fab (E. coli lysate, screening mode); human kappa CL and IgG2 CH1 not included here) VH: EVQLVESGGGLVQPGGSLRLSCAASGFTFSSYAISWVRQAPGKGLEWVASVSGWFDTYYPDSVKGRFTISRDNAKNSLYLQMNSLRAEDTAVYYCATSLENYAFDYWGQGTTVTVSS VL: EIVLTQSPATLSLSPGERATLSCRASESVDDFGISFMNWYQQKPGQAPRLLIYAASKQGSGIPARFSGSGSGTDFTLTISSLEPEDFAVYYCQQSKEVPPTFGGGTKVEIK | 2.55 | 0.00255
15 | L2.4B10 (Fab, V domains shown, tested as Fab (E. coli lysate, screening mode); human kappa CL and IgG2 CH1 not included here) VH: EVQLVESGGGLVQPGGSLRLSCAASGFTFSSYAISWVRQAPGKGLEWVASVSGWYDTYYPDSVKGRFTISRDNAKNSLYLQMNSLRAEDTAVYYCATSLENYAFDYWGQGTTVTVSS VL: EIVLTQSPATLSLSPGERATLSCRASESVDDFGISFMNWYQQKPGQAPRLLIYAASKQGSGIPARFSGSGSGTDFTLTISSLEPEDFAVYYCQQSKEVPPTFGGGTKVEIK | 3.45 | 0.00345
